From publication PMC7022206
pKd: −log10 of the molar value.

Assays:
[1] = target: NLS-conjugated polymersome nanocarriers (bipartite nucleoplasmin NLS peptide on PMOXA-PDMS-PMOXA polymersomes); test: dual-color fluorescence lifetime cross-correlation spectroscopy
[2] = target: Cysteine-tagged FG domain of human Nup153 (human); test: SPR

In the case of “Kapα•Kapβ1 (from UniProt P52292;Q14974) (complex)”, the pKd [1] was greater than 9.40 and the pKd [2] was 7.61.
